Measurements: patent publication US7056679 (ANTYRA, dated 2006)

B1: DGI-2-20R-4-H112 (peptide)
peptide: SLECWAMPGMVVRLVGCDGPAAAGAPVPYPDPLEPRP
B2: DGI-2-20R-3-B10 (peptide)
peptide: QLDCLVWGLPGLRCDRPLEQAAAGAPVPYPDPLEPRP
B3: DGI-2-20R-3-B1 (peptide)
peptide: WWERFVWGRPVDDGVVVMATAAAGAPVPYPDPLEPRP
B4: DGI-2-20R-4-G99 (peptide)
peptide: DQRVVGSGWFERLRNWYDRAAAAGAPVPYPDPLEPRP
B5: DGI-2-20R-3-A122 (peptide)
peptide: WWREWVDGSLRGGGGTVLKDAAAGAPVPYPDPLEPRP
B6: DGI-2-20R-3-A8 (peptide)
peptide: RSIRLQLIDEACQFFDGLCTAAAGAPVPYPDPLEPRP
B7: DGI-2-20R-3-C1 (peptide)
peptide: LFSATGCALMSGFCLGSDGSAAAGAPVPYPDPLEPRP
B8: DGI-2-20R-3-C3 (peptide)
peptide: TIDVARRFGYGWWDLWLDGDAAAGAPVPYPDPLEPRP
B9: DGI-2-20R-4-F93 (peptide)
peptide: LSLEGGWMWDTKGGDGGSAQAAAGAPVPYPDPLEPRP
B10: DGI-2-20R-3-D2 (peptide)
peptide: FRMWVQSCFWGQPGTGCGEGAAAGAPVPYPDPLEPRP
B11: DGJ-2-20R-3-A10 (peptide)
peptide: RRILPWSFPGCGRMCAAAGAPVPYPDPLEPRP
B12: DGI-2-20R-3-C2 (peptide)
peptide: RDTTSQWSWISRGWEFPGWRAAAGAPVPYPDPLEPRP
B13: DGI-2-20R-4-H1 (peptide)
peptide: GRWDGWEVCGIWGADDCASGAAAGAPVPYPDPLEPRP
B14: DGI-2-20R-3-C11 (peptide)
peptide: SRELGKWGRLWQDWSSGNFSAAAGAPVPYPDPLEPRP
B15: DGI-2-20R-4-G114 (peptide)
peptide: DGRGWGAMWMRWAEGLGADIAAAGAPVPYPDPLEPRP
B16: DGI-2-20R-4-G4 (peptide)
peptide: VWAAWVEGSLLSPRQEPVRDAAAGAPVPYPDPLEPRP
B17: DGI-2-20F-PP-G1 (peptide)
peptide: RTLFINGGCCGKGSGGGRPLAAAGAPVPYPDPLEPRP
B18: DGI-2-20R-3-B52 (peptide)
peptide: LWRRWSEGQLLGDGELRGDGAAAGAPVPYPDPLEPRP
B19: DGI-2-20R-3-A5 (peptide)
peptide: VWRDWVNGTVGLRNREKPGVAAAGAPVPYPDPLEPRP
B20: DGI-2-20R-3-A11 (peptide)
peptide: WAASCFWGHVALGCGRNGQGAAAGAPVPYPDPLEPRP
B21: DGI-2-20R-4-F120 (peptide)
peptide: GWSDFVATGSWSGQVSAALNAAAGAPVPYPDPLEPRP
B22: DGI-2-20R-4-G22 (peptide)
peptide: VSFAHDWGRWWYQWEVGAAAGAPVPYPDPLEPRP
B23: DGI-2-20R-3-D4 (peptide)
peptide: CGGWGAMWEAWVQGLNGAGCAAAGAPVPYPDPLEPRP
B24: DGI-2-20R-4-H2 (peptide)
peptide: GHGAGDWAAELFVCPVAFLTGFAWRAAAGAPVPYPDPLEPRP
B25: DGI-2-20R-3-B4 (peptide)
peptide: RKGWGVFCIPGLRFCDWSDPAAAGAPVPYPDPLEPRP
B26: DGI-2-20R-3-A2 (peptide)
peptide: QMSRVAFSPGESWRRWVEGVAAAGAPVPYPDPLEPRP
B27: DGI-2-20R-4-G122 (peptide)
peptide: RDTMCGSVSWGIPGCEYSGMAAAGAPVPYPDPLEPRP
B28: DGI-2-20R-3-A1 (peptide)
peptide: EGNWFCAVFRGFCVGDRGPEAAAGAPVPYPDPLEPRP
B29: DGI-2-20R-4-H626 (peptide)
peptide: RRGVCEIFTGWCVGQTNERPAAAGAPVPYPDPLEPRP
B30: DGI-2-20R-3-D9 (peptide)
peptide: WGCVFRQWASGSGAGCARRHAAAGAPVPYPDPLEPRP
B31: DGI-2-40F-4-F97 (peptide)
peptide: QVGGMTQVGATVLSVVTGRGSCDGEDAWYPPGVTVGLGLCAAAGAPVPYPDPLEPRP
B32: DGI-2-20F-3-B5 (peptide)
peptide: RERWGTAWNLWTEGVVDVRPAAAGAPVPYPDPLEPRP
B33: DGI-2-40F-3-D1044 (peptide)
peptide: DRVARLATPTAGTMAAGSLGYERTVGCDSQDWFRCVVEGLAAAGAPVPYPDPLEPRP
B34: DGI-2-20R-3-D127 (peptide)
peptide: SWACGLLWPGECGSQVARRGAAAGAPVPYPDPLEPRP
B35: DGI-2-20R-4-E6 (peptide)
peptide: VLGADAGMIWFMDGCGIRCRAAAGAPVPYPDPLEPRP

Experiments:
Experiment in all cases: phage ELISA
[1] = biological target: T1, antibody raised against ETAG
T1 construct: Coated at 500 ng/well; also called E-tag antibody
Protocol: (§1) For analysis of individual target binders, colonies were picked and phage prepared as described above using helper phage, M13KO7. Ninety-six-well microtiter plates were coated with 500 ng/well of specific target protein, 500 ng/well lactate dehydrogenase (LDH) irrelevant or non-specific target, 500 ng/well of positive control antibody raised against ETAG, and negative control of non-fat milk powder-PBS 2% at 4° C. overnight. Plates were then blocked with 350 microliters/well PBS containing 2% non-fat milk for 1 hr at room temperature. One hundred microliters per well of phage from isolated clones were added and plates were incubated at room temperature for 2 hr after centrifuging samples for 20 minutes at 3500 rpm at 4° C. The phage solution was then removed, and the wells were washed three times with PBS at room temperature. Antibody raised against M13 conjugated to horseradish peroxidase (Pharmacia) was diluted 1:3000 in PBS-Tween and added to each well (100 µl/well). Incubation was for 1 hr at room temperature, followed by washing with PBS-(0.5%) Tween 3 times as described. Color was developed by addition of ABTS solution (100 µl/well; Boehringer, Indianapolis, Ind.). Plates were analyzed at 405 nm. A clone was considered "positive" if the $A405$ of the well was $\geq$2-fold over background.

DGI-2 polypeptide = biological target: T2, DGI-2 polypeptide (UniProt Q15004 1-111, limits assumed)
T2 construct: Soluble recombinant protein coated at 500 ng/well; vector tag of pIVEX2.3-MCS not described for this construct; also called KIAA0101
T2 sequence (looked up): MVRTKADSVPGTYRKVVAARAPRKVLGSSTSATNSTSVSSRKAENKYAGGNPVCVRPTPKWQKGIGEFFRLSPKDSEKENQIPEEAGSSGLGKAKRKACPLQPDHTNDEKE
Protocol: as §1

[2] = biological target: T3, lactate dehydrogenase (LDH)
T3 construct: Coated at 500 ng/well as non-specific target; also called LDH polypeptide
Protocol: as §1

Row | Binder | ETAG (OD) [1] | DGI-2 (OD) (DGI-2 polypeptide) | DGI-2/LDH (DGI-2 polypeptide) | LDH (OD) [2]
1 | B1 | 12.3 OD | 6.6 OD | 6 ratio | 1.1 OD
2 | B2 | 17 OD | 7.8 OD | 7.6 ratio | 1 OD
3 | B3 | 14.5 OD | 6.3 OD | 6.2 ratio | 1 OD
4 | B4 | 14.1 OD | 7.5 OD | 7.2 ratio | 1 OD
5 | B5 | 15.1 OD | 9.6 OD | 9.4 ratio | 1 OD
6 | B6 | 15.3 OD | 6.9 OD | 6.4 ratio | 1.1 OD
7 | B7 | 14 OD | 8.2 OD | 8.3 ratio | 1 OD
8 | B8 | 20.2 OD | 7.9 OD | 7 ratio | 1.1 OD
9 | B9 | 19.5 OD | 9 OD | 8.4 ratio | 1.1 OD
10 | B10 | 14.3 OD | 7.9 OD | 7.5 ratio | 1.1 OD
11 | B11 | 16.4 OD | 6.2 OD | 5.9 ratio | 1.1 OD
12 | B12 | 11.9 OD | 6.2 OD | 5.8 ratio | 1.1 OD
13 | B13 | 14 OD | 9.3 OD | 7.8 ratio | 1.2 OD
14 | B14 | 18.9 OD | 8.6 OD | 8.3 ratio | 1 OD
15 | B15 | 16.5 OD | 12.9 OD | 11 ratio | 1.2 OD
16 | B16 | 13.6 OD | 10.2 OD | 9.8 ratio | 1 OD
17 | B17 | 21.8 OD | 1.4 OD | 1.4 ratio | 1 OD
18 | B18 | 15.8 OD | 8.7 OD | 8.4 ratio | 1 OD

Row | Binder | ETAG (OD) [1] | DGI-2 (OD) (DGI-2 polypeptide) | DGI-2/LDH (DGI-2 polypeptide) | LDH (OD) [2]
19 | B19 | 14.9 OD | 10.9 OD | 9.8 ratio | 1.1 OD
20 | B20 | 14.7 OD | 6.2 OD | 5.7 ratio | 1.1 OD
21 | B21 | 16.5 OD | 13.6 OD | 12.2 ratio | 1.1 OD
22 | B22 | 12.9 OD | 7.9 OD | 6.5 ratio | 1.2 OD
23 | B23 | 18.9 OD | 8.7 OD | 8.1 ratio | 1.1 OD
24 | B24 | 12.9 OD | 9.9 OD | 9.2 ratio | 1.1 OD
25 | B25 | 17.4 OD | 8.4 OD | 8.6 ratio | 1 OD
26 | B26 | 14.2 OD | 7.5 OD | 7.5 ratio | 1 OD
27 | B27 | 13.9 OD | 7.6 OD | 7.1 ratio | 1.1 OD
28 | B28 | 11.1 OD | 7.1 OD | 6.3 ratio | 1.1 OD
29 | B29 | 13.5 OD | 9.6 OD | 8.8 ratio | 1.1 OD
30 | B30 | 19.7 OD | 6.7 OD | 6.4 ratio | 1 OD
31 | B31 | 14 OD | 6.7 OD | 6.4 ratio | 1 OD
32 | B32 | 16.4 OD | 6.1 OD | 6.6 ratio | 0.9 OD
33 | B33 | 17.7 OD | 7.9 OD | 6.2 ratio | 1.3 OD
34 | B34 | 15.4 OD | 6.7 OD | 6.4 ratio | 1 OD
35 | B35 | 19.1 OD | 7 OD | 7 ratio | 1 OD
